Residue numbers refer to the chain shown, from its start. Read-outs that look alike come from different tables or passages of the source. No end group written: not given here.

Results on four molecules are retold here after patent US20210023171A1 (published 2021).

Test [1] deals with T1, αvβ3 integrin on cells (U87MG glioblastoma cells; K562-αvβ3 cells) (UniProt P06756 31-1048; P05106 27-788). Description: cell-based or functional assay.
Test [2] has as its target T1, αvβ3 integrin on cells (U87MG …). Description: cell-based or functional assay. This is another data set of the same source.
For test [3] the target is unchanged.
Test [4] addresses T2, αiibβ3 integrin on K562 cells stably transfected with αiibβ3 (UniProt P08514 32-1039; P05106 27-788).
T2 construct: whole, on cells; also called K562-αiibβ3; K562-αiiβ3
Description: titration on K562-αiibβ3 cells up to 5 µM, not saturated.

Test [5] deals with T1, αvβ3 integrin on cells (U87MG …). Description: direct equilibrium titration on K562-αvβ3 cells, anti-His flow cytometry.
The target is the same in test [6]. Description: competition of synthetic 7C by recombinant 7C on U87MG cells, performed analogously.
Test [7] has the same target. The experiment in a line: direct equilibrium titration on U87MG cells, anti-His flow cytometry.
For test [8] the target is unchanged. Description: direct equilibrium titration on U87MG cells.
Test [9] has the same target. Description: competition on U87MG cells against 20 nM recombinant FLAG/His 7C, anti-FLAG flow cytometry.
The target is the same in test [10]. Description: competing off ^125I-echistatin, U87MG cells.

T1 sequence (P06756 31-1048, chain 1 of 2): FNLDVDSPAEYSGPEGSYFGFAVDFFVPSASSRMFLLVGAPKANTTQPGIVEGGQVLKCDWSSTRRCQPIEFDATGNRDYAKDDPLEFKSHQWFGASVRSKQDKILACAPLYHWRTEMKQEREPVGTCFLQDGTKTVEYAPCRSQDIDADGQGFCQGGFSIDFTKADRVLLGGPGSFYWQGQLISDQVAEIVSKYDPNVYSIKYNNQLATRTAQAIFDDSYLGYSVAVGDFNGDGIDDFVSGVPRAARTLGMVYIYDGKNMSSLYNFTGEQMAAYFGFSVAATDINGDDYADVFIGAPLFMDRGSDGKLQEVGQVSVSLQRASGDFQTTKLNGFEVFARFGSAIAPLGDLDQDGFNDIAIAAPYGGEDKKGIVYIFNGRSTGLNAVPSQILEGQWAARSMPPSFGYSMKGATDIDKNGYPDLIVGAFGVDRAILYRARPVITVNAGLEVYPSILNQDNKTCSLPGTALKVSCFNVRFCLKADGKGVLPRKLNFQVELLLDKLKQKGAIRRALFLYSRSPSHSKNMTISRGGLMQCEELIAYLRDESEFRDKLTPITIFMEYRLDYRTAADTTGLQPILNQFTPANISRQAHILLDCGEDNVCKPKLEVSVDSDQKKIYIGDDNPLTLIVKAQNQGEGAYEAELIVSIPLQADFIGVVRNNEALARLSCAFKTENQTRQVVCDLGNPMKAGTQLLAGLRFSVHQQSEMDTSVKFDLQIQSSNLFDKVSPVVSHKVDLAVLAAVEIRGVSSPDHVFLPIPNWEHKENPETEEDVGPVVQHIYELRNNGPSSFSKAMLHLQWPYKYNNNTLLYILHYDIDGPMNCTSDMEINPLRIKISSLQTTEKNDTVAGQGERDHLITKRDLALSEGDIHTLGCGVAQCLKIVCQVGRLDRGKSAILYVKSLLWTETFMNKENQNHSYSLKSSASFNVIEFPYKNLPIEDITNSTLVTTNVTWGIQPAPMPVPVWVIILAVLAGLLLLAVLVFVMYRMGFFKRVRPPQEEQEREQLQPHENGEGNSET
T1 sequence (P05106 27-788, chain 2 of 2): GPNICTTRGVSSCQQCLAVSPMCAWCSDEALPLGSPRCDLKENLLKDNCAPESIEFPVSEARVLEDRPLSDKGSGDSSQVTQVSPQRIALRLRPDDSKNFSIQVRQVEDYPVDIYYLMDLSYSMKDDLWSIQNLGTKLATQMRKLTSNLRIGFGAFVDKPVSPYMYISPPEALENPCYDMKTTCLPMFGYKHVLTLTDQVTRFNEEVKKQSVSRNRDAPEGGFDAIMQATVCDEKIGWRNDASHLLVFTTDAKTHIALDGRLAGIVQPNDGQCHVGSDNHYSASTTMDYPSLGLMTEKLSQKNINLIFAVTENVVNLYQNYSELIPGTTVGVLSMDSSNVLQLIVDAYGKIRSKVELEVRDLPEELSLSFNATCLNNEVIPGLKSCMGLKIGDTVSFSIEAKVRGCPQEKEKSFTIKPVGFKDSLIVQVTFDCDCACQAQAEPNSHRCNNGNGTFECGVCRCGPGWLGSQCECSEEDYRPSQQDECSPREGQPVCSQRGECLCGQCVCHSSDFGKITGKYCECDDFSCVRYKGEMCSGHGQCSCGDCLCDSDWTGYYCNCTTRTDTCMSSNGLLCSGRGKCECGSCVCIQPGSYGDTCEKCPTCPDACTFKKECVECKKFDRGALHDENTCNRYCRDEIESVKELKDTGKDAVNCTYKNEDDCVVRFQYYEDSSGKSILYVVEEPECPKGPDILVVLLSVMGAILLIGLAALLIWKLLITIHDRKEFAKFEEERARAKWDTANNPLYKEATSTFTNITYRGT

As to QCESGPCCRNCKFLKEGTICKRARGDDMDDYCNGKTCDCPRNPHKGPAT (ligand, ends and bridges not checked; cysteine pairing not given here) [echistatin (unlabeled)], the “U87MG cell adhesion to vitronectin, IC50” value in test [1] was determined as 5.8 nM. For the same molecule, in [2], the “adhesion (IC50; nM) of K562-αvβ3 cells to vitronectin-coated wells” value (“adhesion (IC50; nM) of K562-αvβ3 cells” below) turned out to be 3.2 nM. This molecule also showed a 50% inhibitory concentration (IC50) in [3] of 4.9 nM.

B1: recombinant AgRP peptide 7C (FLAG and hexahistidine tagged) (peptide)
chain: DYKDDDDKGCVRLHESCLGQQVPCCDPAATCYCYGRGDNDLRCYCRHHHHHH
In the case of B1, the “adhesion (IC50; nM) of K562-αvβ3 cells” value in test [2] came to 12 nM. In addition, the Kd in test [4] is more than 100 nM; in test [5], 2.4 nM; in test [7], 1.8 nM. The IC50 in test [6] came to 23 nM.

B2: recombinant engineered AgRP peptide 7A (FLAG and hexahistidine tagged) (peptide)
chain: B1 chain with Y34S, R42V
notes: also called 7A (5E); 5E
Regarding B2, the “adhesion (IC50; nM) of K562-αvβ3 cells” value in [2] amounted to 61 nM. Moreover, the Kd was more than 100 nM in test [4], 0.89 nM in [5] and 0.78 nM in test [7]. Further, the “fold improvement over the worst binder, 6C” value in test [8] is 17 fold.

B3: synthetic AgRP peptide 7C (without epitope tags) (peptide)
chain: GCVRLHESCLGQQVPCCDPAATCYCYGRGDNDLRCYCR
notes: also called AgRP Clone 7C; Agouti peptide 7C
With B3, the half-maximal inhibitory concentration (IC50) in test [9] stood at 22 nM; in test [10], 23 nM.
